Laboratory results published in paper PMC4838890, “Dynamic and flexible H3K9me3 bridging via HP1β dimerization establishes a plastic state of condensed chromatin” (Nature Communications, 2016).

How the values were obtained:
HP1β (Homo sapiens) = HP1β (Homo sapiens) (UniProt P83916); conditions: cited from earlier work
[1] = biological target: H3K9me3 oligonucleosomes (12-mer oligonucleosomal arrays) (Xenopus laevis); experiment: co-sedimentation; chromatin coprecipitation with oligonucleosomes reconstituted to different saturation (0.8:1.0, 1.0:1.0, 1.0:1.2 octamers to positioning sequences); saturating protein concentrations; Coomassie bands quantified in relation to input
[2] = biological target: H3KC9me3 mononucleosome (Xenopus laevis); experiment: ITC; 1.8 mM hHP1β injected into 60 μM H3 peptides, nucleosomes or oligonucleosomal arrays; 25°C; 10 mM triethanolamine pH 7.5, 20 mM NaCl, 0.1 mM EDTA; apparent; one set of identical sites
[3] = biological target: free H3K9me3 tail peptide; experiment: as above
[4] = biological target: H3KC9me3 mononucleosome (Xenopus laevis); experiment: ITC; 1.8 mM hHP1β injected into 60 μM H3 peptides, nucleosomes or oligonucleosomal arrays; 25°C; 10 mM triethanolamine pH 7.5, 150 mM NaCl, 0.1 mM EDTA; apparent; one set of identical sites
[5] = biological target: H3KC9me3 oligonucleosomes (12-mer oligonucleosomal arrays) (Xenopus laevis); experiment: as above
[6] = biological target: free H3K9me3 tail peptide; experiment: as above
[7] = biological target: H3K9me3 mononucleosome (Xenopus laevis); experiment: SPR; biotinylated ligands on streptavidin (SA) chips, hHP1β proteins injected; 298 K; 10 mM triethanolamine pH 7.5, 150 mM NaCl, 0.1 mM EDTA, 1 mM DTT, 0.005% Tween-20; steady-state analysis; apparent
[8] = biological target: H3K9me3 oligonucleosomes (12-mer oligonucleosomal arrays) (Xenopus laevis)
H3KC9me3 tail peptide [9] = experiment: ITC; 1.8 mM hHP1β injected into 60 μM H3 peptides, nucleosomes or oligonucleosomal arrays; 25°C; 10 mM triethanolamine pH 7.5, 20 mM NaCl, 0.1 mM EDTA; apparent; one set of identical sites
H3KC9me3 tail peptide [10] = experiment: ITC; 1.8 mM hHP1β injected into 60 μM H3 peptides, nucleosomes or oligonucleosomal arrays; 25°C; 10 mM triethanolamine pH 7.5, 150 mM NaCl, 0.1 mM EDTA; apparent; one set of identical sites

human HP1β wild type (hHP1β WT), sequence (P83916 whole entry): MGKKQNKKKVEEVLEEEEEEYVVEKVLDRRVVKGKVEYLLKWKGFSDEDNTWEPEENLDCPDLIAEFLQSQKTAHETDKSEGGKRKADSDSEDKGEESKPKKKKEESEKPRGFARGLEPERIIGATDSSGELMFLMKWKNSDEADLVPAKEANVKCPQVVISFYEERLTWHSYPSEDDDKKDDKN
HP1β, sequence (P83916 whole entry): as above
Swi6, sequence (P40381 whole entry): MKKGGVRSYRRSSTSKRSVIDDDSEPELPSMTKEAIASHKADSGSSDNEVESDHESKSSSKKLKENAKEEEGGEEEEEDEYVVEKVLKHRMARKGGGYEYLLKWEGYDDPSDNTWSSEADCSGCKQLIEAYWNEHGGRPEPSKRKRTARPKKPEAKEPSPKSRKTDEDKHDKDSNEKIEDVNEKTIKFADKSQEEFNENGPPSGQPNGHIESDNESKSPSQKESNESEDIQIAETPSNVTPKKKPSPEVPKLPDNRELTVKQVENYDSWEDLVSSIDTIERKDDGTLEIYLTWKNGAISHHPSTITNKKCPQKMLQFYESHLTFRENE

Substance	stoichiometry N (molecules per nucleosome) [1]	Kd [2]	stoichiometry N [2]	Kd [3]	stoichiometry N [3]	Kd [4]	stoichiometry N [4]	Kd [5]	stoichiometry N [5]	stoichiometry N [6]	Kd [7]	other results
HP1β (from UniProt P83916)												Kd (HP1β (Homo sapiens)): < 0.001 µM
Swi6 (from UniProt P40381 1-328) (natural protein)	4											
hHP1β I161A (from UniProt P83916 1-185) (natural protein)		223 µM	1.1	1.1 µM	1	58 µM	1.2	132 µM	1.1	0.9	5.2 µM	Kd [6]: 3.4 µM
hHP1β chromo domain (CD) (domain or fragment)										1.1		
human HP1β wild type (hHP1β WT) (from UniProt P83916 1-185) (natural protein)	2	59 µM	2.1	1.4 µM	0.9	22 µM	1.4	11 µM	1.9	1	1 µM	half-maximal effect in the chromatin precipitation (sedimentation) assay, 150 mM NaCl, 4°C [8]: 0.4 µM; half-maximal effect on the hydrodynamic radius of oligonucleosomes by FCS, 150 mM NaCl, 23°C [8]: 3.5 µM; Kd (H3KC9me3 tail peptide [9]): 11 µM; stoichiometry N (H3KC9me3 tail peptide [9]): 1; Kd (H3KC9me3 tail peptide [10]): 21 µM; stoichiometry N (H3KC9me3 tail peptide [10]): 1
